Where “and” joins values, the source holds several entries; their conditions need not be identical. Identical values can stand only once.
Target: the molecule itself
Experiment: cryo-EM 2D classification

B1: α-latrotoxin (natural protein)
chain: EGEDLTLEEKAEICSELELQQKYVDIASNIIGDLSSLPIAGKIAGTIAAAAMTATHVASGRLDIEQTLLGCSDLPFDQIKEVLENRFNEIDRKLDSHSAALEEITKLVEKSISVVEKTRKQMNKRFDEVMKSIQDAKVSPIISKINNFARYFDTEKERIRGLKLNDYILKLEEPNGILLHFKESRTPTDDSLQAPLFSIIEEGYAVPKSIDDELAFKVLYALLYGTQTYVSVMFFLLEQYSFLANHYYEKGYLEKYDEYFNSLNNVFLDFKSSLVGTGTSNNEGLLDRVLQVLMTVKNSEFLGLEKNGVDEMLNEKINLFNKIKEEIEGKQKMTLSETPENFAQISFDKDITTPIGDWRDGREVRYAVQYASETLFSKISHWSDPVSVREKACPTLRMPVDQTRRNVLVFRKFDSSKPQLVGEITPYLSNFIDIDRDLYNAASNPDSAVGFKEFTKLNYDGANIRATFDHGRTVFHAAAKSGNDKIMFGLTFLAKSTELNQPDKKGYTPIHVAADSGNAGIVNLLIQRGVSINSKTYHFLQTPLHLAAQRGFVTTFQRLMESPEININERDKDGFTPLHYAIRGGERILEAFLNQISIDVNAKSNTGLTPFHLAIIKNDWPVASTLLGSKKVDINAVDENNITALHYAAILGYLETTKQLINLKEINANVVSSPGLLSALHYAILYKHDDVASFLMRSSNVNVNLKALGGITPLHLAVIQGRKQILSLMFDIGVNIEQKTDEKYTPLHLAAMSKYPELIQILLDQGSNFEAKTNSGATPLHLATFKGKSQAALILLNNEVNWRDTDENGQMPIHGAAMTGLLDVAQAIISIDATVVDIEDKNSDTPLNLAAQNSHIDVIKYFIDQGADINTRNKKGLAPLLAFSKKGNLDMVKYLFDKNANVYIADNDGMNFFYYAVQNGHLNIVKYAMSEKDKFEWSNTDNNRRDECPNEECAISHFAVCDAVQFDRIEIVKYFVGTLGNFAICGPLHQAARYGHLDIVKYLVEEEFLSVDGSKTDTPLCYASENGHFTVVQYLVSNGAKVNHDCGNGMTAIDKAITKNHLQVVQFLAANGVDFRRKNSRGTTPFLTAVAENALHIAEYLIREKRQDININEQNVDKDTALHLAVYYKNLQMIKLLIKYGIDVTIRNAYDKTALDIAIDAKFSNIVEYLKTKSGKFRR
- stoichiometry N: 2 and 3 and 4
